From the supplement of paper PMC7877785
± gives the uncertainty stated by the source.

Experiment: self-splicing fitness, log relative to wild type (ln ratio); higher = more splicing; Tetrahymena group I intron in knt gene, E. coli kanamycin selection, DiMSum; sequences stand for … in CUCUCU…GGAGGGAAAAGUUAUCAGGCAUGCACCUGGUAGCUAGUCUUUAAACCAAUAGAUUGCAUCGGUUUAAAAGGCAAGACCGUCAAAUUGCGGGAAAGGGGUCAACAGCCGUUCAGUACCAAGUCUCAGGGGAAACUUUGAGAUGGCCUUGCAAAGGGUAUGGUAAUAAGCUGACGGACAUGGUCCUAACCACGCAGCCAAGUCCUAAGUCAACAGAUCUUCUGUUGAUAUGGAUGCAGUUCACAGACUAAAUGUCGGUCGGGGAAGAUGUAUUCUUCUCAUAAGAUAUAGUCGGACCUCUCCUUAAUGGGAGCUAGCGGAUGAAGUGAUGCAACACUGGAGCCGCUGGGAACUAAUUUGUAUGCGAAAGUAUAUUGAUUAGUUUUGGAGUACUCGUGGUCG
In short: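 DiMSum derived fitness as the error-weighted combination of fold changes across replicates, kanamycin versus no kanamycin, normalised to wild type. E. coli BL21(DE3) held the library, which randomised all eight P1ex-region intron nucleotides within the knt kanamycin-resistance gene on pET-22b(+). Six replicate transformations grew overnight at 37°C or 30°C on LB agar with or without 25 μg/mL kanamycin, also containing 100 μg/mL carbenicillin, 50 μM IPTG and 0.2% rhamnose, and pooled colonies were amplicon-sequenced on an Illumina HiSeq 2500.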

Sequence	self-splicing fitness (ln) (30 °C)	self-splicing fitness (ln) (37 °C)
CAAGAGCAAUAUUACGGGAG	-2.35 ± 0.11	-1.8 ± 0.12
CAACAGCAAUAUUACGUCAC	-3.96 ± 0.24	-2.26 ± 0.18
CAUUAGCAAUAUUACGUGCU	-4.27 ± 0.24	-2.36 ± 0.27
CAUAAGCAAUAUUACGUCAC	-3.86 ± 0.29	
UUAGAGCAAUAUUACGUGAC	-3.13 ± 0.18	-2.64 ± 0.24
CGACAGCAAUAUUACGUCUA	-0.367 ± 0.052	0.0477 ± 0.061
AGAUAGCAAUAUUACGCACU	-1.22 ± 0.1	-0.664 ± 0.14
AACCAGCAAUAUUACGGCGA	-0.304 ± 0.075	0.19 ± 0.11
UGGCAGCAAUAUUACGUAAU	-2.04 ± 0.082	-1.05 ± 0.11
ACUGAGCAAUAUUACGUUCC	-3.65 ± 0.35	-2.52 ± 0.24
UCAUAGCAAUAUUACGGCGA	-0.178 ± 0.07	-0.102 ± 0.083
GAUAAGCAAUAUUACGCGUU	-2.05 ± 0.14	-2.95 ± 0.32
GCAAAGCAAUAUUACGAUCU	-0.767 ± 0.087	-0.252 ± 0.099
UAUAAGCAAUAUUACGAUUC	-2.68 ± 0.15	-1.57 ± 0.32
CUAUAGCAAUAUUACGUAAA	-3.63 ± 0.24	
AGAAAGCAAUAUUACGCCGG	-1.43 ± 0.25	-1.62 ± 0.24
GUGGAGCAAUAUUACGCCAA	-2.82 ± 0.33	-0.536 ± 0.33
GACGAGCAAUAUUACGCAAC	-2.11 ± 0.29	-2.31 ± 0.42
CUUAAGCAAUAUUACGGCAA	-2.7 ± 0.42	-2.57 ± 0.38
UCGCAGCAAUAUUACGAAAU	-3.62 ± 0.21	-2.41 ± 0.24
AGUAAGCAAUAUUACGGUUC	-2.9 ± 0.19	-1.55 ± 0.44

Sequence	self-splicing fitness (ln) (30 °C)	self-splicing fitness (ln) (37 °C)
UCUUAGCAAUAUUACGCUCG	-0.481 ± 0.25	-1.43 ± 0.44
UAUCAGCAAUAUUACGUUGU	-3.84 ± 0.19	-2.62 ± 0.21
UAAUAGCAAUAUUACGAGCU	-3.02 ± 0.29	-1.79 ± 0.3
CUGCAGCAAUAUUACGUGAC	-0.842 ± 0.063	0.23 ± 0.084
GCAAAGCAAUAUUACGCAAA	-1.95 ± 0.1	-1.58 ± 0.1
CCACAGCAAUAUUACGAGGC	-3.21 ± 0.14	-2.37 ± 0.21
UCUCAGCAAUAUUACGCCGA		-0.855 ± 0.18
AGUAAGCAAUAUUACGCCUU	-1.74 ± 0.12	-0.241 ± 0.14
CAGUAGCAAUAUUACGGGUU	-2.49 ± 0.18	-1.82 ± 0.2
CCUAAGCAAUAUUACGGAGU	-3 ± 0.17	-2.55 ± 0.17
CGCGAGCAAUAUUACGGAUC	-2.62 ± 0.23	-2.28 ± 0.25
CUAGAGCAAUAUUACGGGCA		-2.34 ± 0.36
GGACAGCAAUAUUACGCGGU	-4.03 ± 0.23	-1.6 ± 0.15
CGUCAGCAAUAUUACGUGUA	-3.11 ± 0.099	-1.66 ± 0.083
GGGAAGCAAUAUUACGUAAU	-1.88 ± 0.14	-0.632 ± 0.22
AAUGAGCAAUAUUACGUUCU	-2 ± 0.085	-1.21 ± 0.092
GGAUAGCAAUAUUACGUUGG	-2.7 ± 0.16	-2.17 ± 0.22
UUCAAGCAAUAUUACGGCCU	-2.42 ± 0.17	-0.267 ± 0.15
CAGAAGCAAUAUUACGCUGG	-2.84 ± 0.15	-2.21 ± 0.15
CGCUAGCAAUAUUACGUAGC	-3.14 ± 0.31	-1.68 ± 0.37
AAAGAGCAAUAUUACGAGAU	-3.95 ± 0.17	-3.28 ± 0.22

Sequence	self-splicing fitness (ln) (30 °C)	self-splicing fitness (ln) (37 °C)
CCAAAGCAAUAUUACGGCCU	-3.59 ± 0.18	-3.33 ± 0.37
CAUCAGCAAUAUUACGCAGA	-2.69 ± 0.21	-2.86 ± 0.31
AUGCAGCAAUAUUACGUCAA	-2.35 ± 0.19	-0.997 ± 0.14
AAUAAGCAAUAUUACGUCGG	-1.91 ± 0.14	-1.75 ± 0.18
GCACAGCAAUAUUACGGUUG	-2.18 ± 0.059	-1.02 ± 0.072
CGCUAGCAAUAUUACGGACC	-2.14 ± 0.31	
CGCAAGCAAUAUUACGAGAC	-3.4 ± 0.22	-1.81 ± 0.21
CAAUAGCAAUAUUACGGACG	-0.294 ± 0.058	0.146 ± 0.075
UCAUAGCAAUAUUACGCGAG	-1.52 ± 0.15	-0.957 ± 0.15
UCAGAGCAAUAUUACGCAAG	-1.74 ± 0.42	-1.48 ± 0.29
UGCUAGCAAUAUUACGUACG	-0.494 ± 0.09	0.0248 ± 0.1
ACUAAGCAAUAUUACGUAUU	-2.09 ± 0.082	-1.9 ± 0.11
AGAUAGCAAUAUUACGCGUU	-2.34 ± 0.14	-0.0669 ± 0.13
CGUCAGCAAUAUUACGUGCU	-3.04 ± 0.26	-2.39 ± 0.27
CCGUAGCAAUAUUACGACAA	-3.54 ± 0.27	-3.19 ± 0.33
UAAGAGCAAUAUUACGAAUG	-2.32 ± 0.17	-1.52 ± 0.25
GUGGAGCAAUAUUACGUUUU	-3.35 ± 0.28	-2.48 ± 0.48
AGCCAGCAAUAUUACGCUUA	-2.09 ± 0.11	-1.4 ± 0.093
GUCCAGCAAUAUUACGGACA	-2.84 ± 0.26	-1.67 ± 0.18
